Measured values published in paper PMC3526285.

Tested on: TRMT10C (MRPP1, RG9MTD1) (Homo sapiens)
Assay: EMSA
Conditions: apparent Kd; EMSA: 1 nM 5'-labelled pre-tRNA, 10 nM-1.2 uM protein, methylation/processing buffer (composition not in material) + 100 mM sucrose, 30 min at room …

## (mt)pre-tRNAHis
  Kd: 203 nM

## (mt)pre-tRNAIle
  Kd: 255 nM
